Laboratory results taken from the supplement of paper PMC9112550, “Optimization of the antimicrobial peptide Bac7 by deep mutational scanning” (BMC Biology, 2022).

test system: Escherichia coli TOP10; experiment: shrunken log2 fold change of peptide-encoding DNA abundance (4.5 h post-induction vs induction); higher = less antimicrobial activity (less host growth inhibition); conditions: time post-induction: 4.5 h; library: site-saturation at positions 5, 18, 19, 20
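Note: peptides expressed intracellularly from a pBAD plasmid library in pooled LB shake-flask culture, induced with 0.3% L-arabinose, DNA abundance read by NGS, three biological replicates, DESeq2 with apeglm shrinkage.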

| Sequence | shrunken log2 fold change |
| --- | --- |
| RRIRNRPPRLPRPRPRPWNAPRP | -0.255 |
| RRIRERPPRLPRPRPRPHREPRP | -0.0302 |
| RRIRHRPPRLPRPRPRPQHMPRP | -1.2 |
| RRIRFRPPRLPRPRPRPDVGPRP | -0.239 |
| RRIRSRPPRLPRPRPRPMNWPRP | -0.0283 |
| RRIRERPPRLPRPRPRPWGPPRP | -0.0024 |
| RRIRQRPPRLPRPRPRPSQDPRP | -0.0378 |
| RRIRRRPPRLPRPRPRPVGEPRP | 0.333 |
| RRIRMRPPRLPRPRPRPGVCPRP | 0.535 |
| RRIRGRPPRLPRPRPRPLCEPRP | 1.22 |
| RRIRSRPPRLPRPRPRPDFSPRP | 0.0706 |
| RRIRIRPPRLPRPRPRPPPMPRP | 0.377 |
| RRIRARPPRLPRPRPRPKIPPRP | 0.174 |
| RRIRCRPPRLPRPRPRPNQVPRP | 0.017 |
| RRIRDRPPRLPRPRPRPHHIPRP | -0.361 |
| RRIRHRPPRLPRPRPRPFSCPRP | -0.0244 |
| RRIRCRPPRLPRPRPRPSRRPRP | -0.181 |
| RRIRKRPPRLPRPRPRPPHVPRP | 0.498 |
| RRIRQRPPRLPRPRPRPELPPRP | -0.0769 |
| RRIRHRPPRLPRPRPRPSLWPRP | 0.257 |
| RRIRTRPPRLPRPRPRPGIHPRP | -0.158 |
| RRIRWRPPRLPRPRPRPLFDPRP | 0.0264 |
| RRIRMRPPRLPRPRPRPAFHPRP | 0.319 |
| RRIRFRPPRLPRPRPRPERGPRP | 0.0525 |
| RRIRERPPRLPRPRPRPAWEPRP | 0.506 |

| Sequence | shrunken log2 fold change |
| --- | --- |
| RRIRRRPPRLPRPRPRPPVTPRP | 0.538 |
| RRIRMRPPRLPRPRPRPCMTPRP | 1.65 |
| RRIRNRPPRLPRPRPRPYYSPRP | -0.541 |
| RRIRHRPPRLPRPRPRPWFRPRP | -0.00674 |
| RRIRMRPPRLPRPRPRPPTNPRP | 0.949 |
| RRIRTRPPRLPRPRPRPMHEPRP | -0.0192 |
| RRIRYRPPRLPRPRPRPLSNPRP | -0.233 |
| RRIRIRPPRLPRPRPRPCNLPRP | -0.877 |
| RRIRMRPPRLPRPRPRPFYTPRP | -0.364 |
| RRIRLRPPRLPRPRPRPIMHPRP | 0.0628 |
| RRIRIRPPRLPRPRPRPYQPPRP | 0.0299 |
| RRIRGRPPRLPRPRPRPTETPRP | 0.559 |
| RRIRRRPPRLPRPRPRPLVCPRP | 0.177 |
| RRIRRRPPRLPRPRPRPTHTPRP | 0.66 |
| RRIRTRPPRLPRPRPRPVIRPRP | -0.176 |
| RRIRYRPPRLPRPRPRPLSDPRP | -0.108 |
| RRIRVRPPRLPRPRPRPMNYPRP | -0.128 |
| RRIRERPPRLPRPRPRPQGPPRP | 0.0515 |
| RRIRRRPPRLPRPRPRPVMMPRP | -0.0277 |
| RRIRMRPPRLPRPRPRPKEYPRP | 0.189 |
| RRIRCRPPRLPRPRPRPQRQPRP | 0.0683 |
| RRIRSRPPRLPRPRPRPHNSPRP | -0.357 |
| RRIRTRPPRLPRPRPRPYFEPRP | -0.223 |
| RRIRTRPPRLPRPRPRPAREPRP | 0.44 |
| RRIRKRPPRLPRPRPRPIYAPRP | 0.144 |

| Sequence | shrunken log2 fold change |
| --- | --- |
| RRIRIRPPRLPRPRPRPMGLPRP | -0.0686 |
| RRIRWRPPRLPRPRPRPILLPRP | -0.0849 |
| RRIRKRPPRLPRPRPRPVLMPRP | 0.471 |
| RRIRVRPPRLPRPRPRPTEIPRP | 0.221 |
| RRIRQRPPRLPRPRPRPMNKPRP | -0.169 |
| RRIRLRPPRLPRPRPRPRTRPRP | 0.519 |
| RRIRIRPPRLPRPRPRPIDYPRP | -1.06 |
| RRIRPRPPRLPRPRPRPRSMPRP | 0.0858 |
| RRIRIRPPRLPRPRPRPNHHPRP | -0.868 |
| RRIRERPPRLPRPRPRPFHSPRP | -0.256 |
| RRIRTRPPRLPRPRPRPFRIPRP | -0.0114 |
| RRIRERPPRLPRPRPRPTHEPRP | 0.317 |
| RRIRMRPPRLPRPRPRPANVPRP | -0.0273 |
| RRIRYRPPRLPRPRPRPSRKPRP | 0.0647 |
| RRIRYRPPRLPRPRPRPYRLPRP | -0.173 |
| RRIRCRPPRLPRPRPRPPLFPRP | 0.934 |
| RRIRVRPPRLPRPRPRPSMPPRP | -0.343 |
| RRIRMRPPRLPRPRPRPICCPRP | -0.00414 |
| RRIRARPPRLPRPRPRPAKRPRP | 0.47 |
| RRIRVRPPRLPRPRPRPQIEPRP | -0.0116 |
| RRIRFRPPRLPRPRPRPEWLPRP | 0.402 |
| RRIRRRPPRLPRPRPRPKPKPRP | 0.273 |
| RRIRWRPPRLPRPRPRPTLYPRP | -0.0322 |
| RRIRPRPPRLPRPRPRPSPIPRP | 0.335 |
| RRIRRRPPRLPRPRPRPRDEPRP | 0.48 |
